In the assay the target is T1, full-length beta-Catenin (Uniprot ID P35222) (Homo sapiens (Human), UniProt P35222 2-781).
T1 construct: The assay text says 'full-length'; also called B-Catenin; bCat
T1 sequence: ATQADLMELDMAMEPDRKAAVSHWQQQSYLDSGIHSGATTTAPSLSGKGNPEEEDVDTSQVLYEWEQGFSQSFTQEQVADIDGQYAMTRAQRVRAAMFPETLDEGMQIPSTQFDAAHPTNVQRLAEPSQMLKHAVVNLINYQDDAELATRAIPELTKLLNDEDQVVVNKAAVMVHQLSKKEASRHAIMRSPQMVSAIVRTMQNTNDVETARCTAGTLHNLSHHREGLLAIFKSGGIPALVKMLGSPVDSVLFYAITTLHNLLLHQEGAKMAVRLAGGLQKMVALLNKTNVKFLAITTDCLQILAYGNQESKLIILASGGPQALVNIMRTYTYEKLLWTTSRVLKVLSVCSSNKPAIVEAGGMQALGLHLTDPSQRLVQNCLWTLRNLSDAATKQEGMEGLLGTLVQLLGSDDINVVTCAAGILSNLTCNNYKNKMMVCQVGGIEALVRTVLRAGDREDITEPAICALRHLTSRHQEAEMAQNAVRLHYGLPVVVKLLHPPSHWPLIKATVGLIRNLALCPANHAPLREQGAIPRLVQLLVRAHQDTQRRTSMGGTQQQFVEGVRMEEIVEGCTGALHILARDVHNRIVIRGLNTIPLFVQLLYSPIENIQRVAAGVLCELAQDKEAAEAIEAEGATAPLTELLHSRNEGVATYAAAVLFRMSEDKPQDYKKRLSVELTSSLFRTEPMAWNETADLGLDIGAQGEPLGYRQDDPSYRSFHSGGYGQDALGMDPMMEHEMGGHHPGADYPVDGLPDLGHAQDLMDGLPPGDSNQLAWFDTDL
The experiment in a line: AlphaScreen competition vs biotin-TCF4(10-53) on full-length beta-catenin. The method, then:
Equal volume of the titrated peptide was added to the plate and incubated for 15 minutes at 20° C. Then 4 uL of donor and 4 uL acceptor beads at 10 ug/mL were added to the plate, for a 16 uL reaction pool and protected from light for 60 minutes at 20° C. prior to read. Reads were performed on a CLARIOstar plate reader (BMG Labtech) in duplicate, and data were fitted to a 1:1 binding model with hill slope using an in-house script. All provided concentrations are final concentrations.

Starred links: 1 amine or outer side, 2 acyl side, 3 side chain; linkers in the order of their positions; H or OH if unused. Positions of bridges follow the written chain, without caps; N, C: chain ends. Non-standard residues stand in square brackets, D forms with d. Primed or numbered codes have the meaning given here. ReN = (R)-5-(((allyloxy)carbonyl)(methyl)amino)-2-amino-2-methylpentanoic acid, stapling residue, C=CCOC(=O)N(C)CCC[C@@](C)(N[*:1])C(=O)[*:2]; PyrS(3) = (S)-1-((allyloxy)carbonyl)-3-aminopyrrolidine-3-carboxylic acid, stapling residue, C=CCOC(=O)N1CC[C@@](N[*:1])(C(=O)[*:2])C1; PyrS″ = (S)-1-((allyloxy)carbonyl)-3-aminopyrrolidine-3-carboxylic acid (stapling residue), C=CCOC(=O)N1CC[C@@](N[*:1])(C(=O)[*:2])C1; SeN = (S)-5-(((allyloxy)carbonyl)(methyl)amino)-2-amino-2-methylpentanoic acid, C=CCOC(=O)N(C)CCC[C@](C)(N[*:1])C(=O)[*:2]; RdN = (R)-4-(((allyloxy)carbonyl)(methyl)amino)-2-amino-2-methylbutanoic acid, C=CCOC(=O)N(C)CC[C@@](C)(N[*:1])C(=O)[*:2]; PyrS = (S)-1-((allyloxy)carbonyl)-3-aminopyrrolidine-3-carboxylic acid, C=CCOC(=O)N1CC[C@@](N[*:1])(C(=O)[*:2])C1; R6 = (R)-2-amino-2-methyloct-7-enoic acid, C=CCCCC[C@@](C)(N[*:1])C(=O)[*:2]; Phe(4-COOH) = N[C@@H](Cc1ccc(C(=O)O)cc1)C(=O)O; S7 = C[C@@](CCCCCC=[*:3])(N[*:1])C(=O)[*:2]; Bip = N[C@@H](Cc1ccc(-c2ccccc2)cc1)C(=O)O; 3Pal = N[C@@H](Cc1cccnc1)C(=O)O; R8 = C=CCCCCCC[C@@](C)(N)C(=O)O; Aad = N[C@@H](CCCC(=O)O)C(=O)O; Cha = N[C@@H](CC1CCCCC1)C(=O)O; hLeu = CC(C)CC[C@H](N)C(=O)O; S5 = C=CCCC[C@](C)(N)C(=O)O; Nle = CCCC[C@H](N)C(=O)O

B1: I-14 (peptide)
peptide: Ac-FDA[R8]D[Nle]AAFV[PyrS]FWQ-NH2
modifications: staple 4-11; not fully specified; printed as Ac-Phe-Asp-Ala-R8-Asp-nLeu-Ala-Ala-Phe-Val-PyrS-Phe-Trp-Gln-NH2
notes: Stapled peptide composition
With B1, the concentration for a half-maximal effect (EC50) (in general, the concentration at which the effect is half-maximal) worked out at 9.76 µM.

B2: I-7 (peptide)
peptide: Ac-FDA[R8]D[Phe(4-COOH)]AAFV[PyrS″]FWQ-NH2
modifications: staple 4-11
notes: Stapled peptide composition
Consider B2, for which the concentration for a half-maximal effect (EC50) was at least 10 µM.

B3: I-11 (peptide)
peptide: Ac-FDA[R8]D[Bip]AAFV[PyrS″]FWQ-NH2
modifications: staple 4-11; not fully specified; printed as Ac-Phe-Asp-Ala-R8-Asp-Bip-Ala-Ala-Phe-Val-PyrS-Phe-Trp-Gln-NH2
notes: Stapled peptide composition
B3 displayed an EC50 of at least 10 µM.

B4: I-15 (peptide)
peptide: Ac-FDA[R8]D[Cha]AAFV[PyrS]FWQ-NH2
modifications: staple 4-11; not fully specified; printed as Ac-Phe-Asp-Ala-R8-Asp-Cha-Ala-Ala-Phe-Val-PyrS-Phe-Trp-Gln-NH2
notes: Stapled peptide composition
Take B4: the concentration giving a half-maximal response (EC50) is at least 10 µM.

B5: I-23 (peptide)
peptide: Ac-FDA[R8]DDA[Aad]FV[PyrS″]FWQ-NH2
modifications: staple 4-11; also: earlier-eluting HPLC peak
notes: Stapled peptide composition
Consider B5, for which the half-maximal effective concentration (EC50) came out at 9.22 µM. That is a single-digit micromolar value.

B6: I-8 (peptide)
peptide: Ac-FDA[R8]D[Phe(4-COOH)]AAFV[PyrS″]FWQ-NH2
modifications: staple 4-11
notes: Stapled peptide composition
Turning to B6, the EC50 is at least 10 µM.

B7: I-6 (peptide)
peptide: Ac-FDA[R8]D[Aad]AAFV[PyrS]FWQ-NH2
modifications: staple 4-11
notes: Stapled peptide composition
With B7, the EC50 was 6.5 µM.

B8: I-5 (peptide)
peptide: Ac-FDA[R8]D[Aad]AAFV[PyrS(3)]FWQ-NH2
modifications: staple 4-11; also: earlier-eluting HPLC isomer, E/Z not given here
notes: Stapled peptide composition
In the case of B8, the EC50 is at least 10 µM.

B9: I-26 (peptide)
peptide: Ac-FDA[R6]DDAAFV[SeN]FWQ-NH2
modifications: staple 4-11
notes: Stapled peptide composition
B9 had an EC50 of 8.11 µM.

B10: I-16 (peptide)
peptide: Ac-FDA[R8]D[Cha]AAFV[PyrS]FWQ-NH2
modifications: staple 4-11; not fully specified; printed as Ac-Phe-Asp-Ala-R8-Asp-Cha-Ala-Ala-Phe-Val-PyrS-Phe-Trp-Gln-NH2
notes: Stapled peptide composition
In turn, B10 displayed an EC50 of at least 10 µM.

B11: I-27 (peptide)
peptide: Ac-FDA[ReN]DDAAFV[S5]FWQ-NH2
modifications: staple 4-11
notes: Stapled peptide composition
Regarding B11, the midpoint of the response, the EC50, lay at 6.82 µM.

B12: I-17 (peptide)
peptide: Ac-FDA[R8]D[hLeu]AAFV[PyrS]FWQ-NH2
modifications: staple 4-11
notes: Stapled peptide composition
In turn, B12 displayed an EC50 of at least 10 µM.

B13: I-2 (peptide)
peptide: Ac-FDA[RdN]DDAAFV[S7]FWQ-NH2
modifications: staple 4-11; also: later-eluting isomer of same sequence as I-1
notes: Stapled peptide composition
Turning to B13, the EC50 is at least 10 µM.

B14: I-9 (peptide)
peptide: Ac-FDA[R8]D[3Pal]AAFV[PyrS″]FWQ-NH2
modifications: staple 4-11
notes: Stapled peptide composition
As to B14, the concentration for a half-maximal effect (EC50) was at least 10 µM.

(Values after patent US20240116985A1 (published 2024).)
